Measurements from publication PMC5409194 (Journal of Visualized Experiments : JoVE, 2017).

Target: the molecule itself
Assay: […]

B1: C-terminal fragment (residue 323-785) of vaccinia virus protein D5 (domain or fragment)
chain: GNKLFNIAQRILDTNSVLLTERGDYIVWINNSWKFNSEEPLITKLILSIRHQLPKEYSSELLCPRKRKTVEANIRDMLVDSVETDTYPDKLPFKNGVLDLVDGMFYSGDDAKKYTCTVSTGFKFDDTKFVEDSPEMEELMNIINDIQPLTDENKKNRELYEKTLSSCLCGATKGCLTFFFGETATGKSTTKRLLKSAIGDLFVETGQTILTDVLDKGPNPFIANMHLKRSVFCSELPDFACSGSKKIRSDNIKKLTEPCVIGRPCFSNKINNRNHATIIIDTNYKPVFDRIDNALMRRIAVVRFRTHFSQPSGREAAENNDAYDKVKLLDEGLDGKIQNNRYRFAFLYLLVKWYKKYHVPIMKLYPTPEEIPDFAFYLKIGTLLVSSSVKHIPLMTDLSKKGYILYDNVVTLPLTTFQQKISKYFNSRLFGHDIESFINRHKKFANVSDEYLQYIFIEDISSP
stoichiometry N: 6
